Data: the supplement of paper PMC10567573

B1: CDC14A (parent)
chain: LNLAMVYRYCCKLNKKLKSYSLSR
B2: TRIM63 (parent)
chain: FRCPTCRHEVIMDRHGVYGLQRNL

Variants of: B1
Test: protein stability index of a GFP-peptide fusion (GPS, HEK-293T) (PSI 1-6); higher = more stable
Conditions: c terminus: a fixed tail appended
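Also: lentivirally expressed fusions sorted by FACS into six bins by GFP to DsRed ratio, PSI derived from sequencing read proportions per bin multiplied by bin number.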

Protein stability index: each site, then its substitutions
K18: N 2.77, I 2.79, S 2.9, C 1.73, T 3.6, G 3.2, Y 2.67, E 3.12, M 3.72, H 2.96, V 2.46, L 1.71, A 2.11, D 2.42, P 2.5, Q 1.97
L17: D 2.14, G 2.85, I 2.95, T 2.08, H 2.21, R 2.78, M 3.07, V 4.14, F 2.64, A 2.65, P 3.05, C 4.4, K 2.24, E 1.69, Y 3.33, S 2.17, N 2.54
Y20: S 2.63, H 3.02, K 3.24, Q 3.1, P 4.23, D 3.34, A 2.61, R 2.17, N 2.16, W 3.32, V 2.52, C 3.44, I 3.15, L 2.94, T 2.42
S19: P 2.75, Q 1.51, M 3.69, D 2.28, H 2.3, A 3.52, R 3.44, N 2.8, K 2.19, C 2.98, W 3.46, L 2.5, I 3.03, G 2.5
L22: F 3.36, H 3.37, C 2.92, Y 4.37, P 2.24, I 3.6, D 2.2, N 1.75, T 2.8, A 4.08, S 3.58, G 3.46, V 1.04, K 2.39, R 2.31, E 1.85, W 2.76
S23: D 2.55, K 3.42, A 3.5, R 4.26, I 3.46, C 2.49, E 4.66, Y 2.97, G 2.2, N 2.35, Q 2.53, H 2.36, W 3.77, T 3.09, L 2.37, F 2.69, V 2.77, P 2.95
K16: F 1.63, G 3.28, M 2.77, L 2.13, R 3.33, Q 2.35, Y 2.72, N 2.32, T 3.67, C 4.54, P 2.42, E 1.9, H 3.33, S 2.33, D 2.56, I 1.62, W 2.81
K15: A 2.87, D 2.33, I 3.62, Y 3.3, H 3.69, N 2.31, T 2.62, V 3.04, C 4.37, P 2.32, Q 4.63, L 3.39, F 2.81, M 1.07, E 3.47
S21: Q 2.86, I 3.96, Y 2.62, F 2.38, W 2.86, P 3.64, D 2.01, L 2.25, G 2.26, T 2.92, M 3.42, N 2.51, H 2.13, A 3.27, C 3.76, V 4.29, E 3.12
N14: I 2.38, Y 3.35, S 2.35, V 1.78, K 3.38, P 4.59, T 3.41, Q 4.32, H 3.21, M 1.94, R 3.97
R24: Q 4.16, G 2.21, T 1.99, I 3.79, Y 3.41, D 3.64, A 3.55, H 2.69, W 3.11, C 3.05, V 3.52, P 2.59, K 2.13, M 2.37, F 2.97, L 3.97, N 3.15, E 2.72, S 2.19

Variants of: B2
Test: as above
Conditions: c terminus: a fixed tail appended

Protein stability index of substitutions, site by site:
P4: D 2.24, F 3.47, E 2.16, K 2.67, S 2.93, H 3.24, G 1.38, V 2.99, Q 3.65, N 3.06, R 2.18, T 3.2, Y 2.74, I 3.9, A 2.38
E9: Q 2.63, A 2.48, N 2.69, W 2.12, R 1.47, P 1.94, L 2.99, V 3.23, H 2.63, K 1.01, T 2.34, D 1.79, F 2.14, Y 1.86, M 2.06, I 1.43, C 2.56
C6: R 2.27, V 2.51, W 1.77, D 2.62, T 2.97, S 2.09, H 1.91, Y 2.37, Q 2.73, I 1.89, P 2.89, L 2.16, G 2.31, K 2.15, M 2.06, A 2.57, N 2.38, F 1.63, E 2.61
C3: V 2.12, N 3.22, L 2.9, E 2.04, W 2.18, Q 1.78, Y 3.25, P 1.94, I 2.6, T 1.52, F 3.62, A 3.2, H 4.77, G 2.15, M 4.35, R 1.54, S 2.41, D 1.7, K 1.74
F1: K 2.91, E 2.69, L 3.27, Y 1.96, A 1.16, C 2.44, D 2.76, V 2.15, I 1.47, T 3.56, P 3.34, M 2.72, G 1.38, H 2.39, S 2.62, N 3.53, W 2.14
H8: K 2.02, Q 1.91, E 1.81, N 2.24, F 2.64, A 2.6, P 3.14, T 2.31, D 1.77, I 2.11, L 2.39, W 1.72, Y 2.34, R 1.89, M 3.58, S 1.96, C 2.52
R7: T 2.35, G 3.57, L 2.13, Y 1.94, M 2.42, D 3.28, C 2.24, F 2.42, Q 2.48, E 2.09, S 2.24, V 2.93, H 2.46, A 2.63, N 3, K 3.15, W 2.12, P 2.36
R2: K 1.77, W 2.42, D 3.32, P 1.56, E 2.55, H 2.17, L 1.98, A 2.96, G 3.06, I 2.79, T 2.05, F 3.38, M 2.58, V 1.86, Y 1.87, S 1.4, C 2.58, N 1.44, Q 1.84
T5: C 2.14, F 2.32, I 2.53, L 1.72, H 3.16, Q 1.64, M 2.28, D 3.7, G 1.33, Y 2.65, S 1.82, K 2.38, A 2.39, W 2.17, R 1.77, N 3.43, V 3.27
